One assay concerns the target CH505w136.B18D8gp120. As to the kind of experiment: ELISA. A general note: In an ELISA, binding on a coated surface is turned into a signal by an enzyme label.
The target in a further assay is CH505.M7D8gp120/293F. As to the kind of experiment: ELISA.
Another assay has as its target CH505.M9D8gp120/293F. As to the kind of experiment: ELISA.
The target in a further assay is CH505.M19D8gp120. Nature of the assay: ELISA.
The target in the next assay is T1, CH505.TF mutant gp120 M6 (HIV-1).
T1 construct: domain: gp120
As to the kind of experiment: ELISA.

Assay [1] addresses T2, CH505.TF mutant gp120 M20 (HIV-1).
T2 construct: domain: gp120
As to the kind of experiment: ELISA.

Another assay addresses CH505.M5D8gp120293F. As to the kind of experiment: ELISA.
For a further assay, the target named is T3, CH505.TF mutant gp120 M8 (HIV-1).
T3 construct: domain: gp120
As to the kind of experiment: ELISA.

The target in the next assay is CH505.M10D8gp120. As to the kind of experiment: ELISA.
The target of another assay is CH505.M21D8gp120/293F. Nature of the assay: ELISA.
In another assay the target is CH505.M11D8gp120/293F. Nature of the assay: ELISA.
In the next assay the target is T4, CH505w020.14D8gp120.
T4 construct: also called CH505w20.14 gp120
As to the kind of experiment: ELISA.

The target of a further assay is CH0505_CON D7gp120/293i. Nature of the assay: ELISA.
The target in the next assay is T5, Scl-70 (UniProt P11387 1-765).
T5 sequence: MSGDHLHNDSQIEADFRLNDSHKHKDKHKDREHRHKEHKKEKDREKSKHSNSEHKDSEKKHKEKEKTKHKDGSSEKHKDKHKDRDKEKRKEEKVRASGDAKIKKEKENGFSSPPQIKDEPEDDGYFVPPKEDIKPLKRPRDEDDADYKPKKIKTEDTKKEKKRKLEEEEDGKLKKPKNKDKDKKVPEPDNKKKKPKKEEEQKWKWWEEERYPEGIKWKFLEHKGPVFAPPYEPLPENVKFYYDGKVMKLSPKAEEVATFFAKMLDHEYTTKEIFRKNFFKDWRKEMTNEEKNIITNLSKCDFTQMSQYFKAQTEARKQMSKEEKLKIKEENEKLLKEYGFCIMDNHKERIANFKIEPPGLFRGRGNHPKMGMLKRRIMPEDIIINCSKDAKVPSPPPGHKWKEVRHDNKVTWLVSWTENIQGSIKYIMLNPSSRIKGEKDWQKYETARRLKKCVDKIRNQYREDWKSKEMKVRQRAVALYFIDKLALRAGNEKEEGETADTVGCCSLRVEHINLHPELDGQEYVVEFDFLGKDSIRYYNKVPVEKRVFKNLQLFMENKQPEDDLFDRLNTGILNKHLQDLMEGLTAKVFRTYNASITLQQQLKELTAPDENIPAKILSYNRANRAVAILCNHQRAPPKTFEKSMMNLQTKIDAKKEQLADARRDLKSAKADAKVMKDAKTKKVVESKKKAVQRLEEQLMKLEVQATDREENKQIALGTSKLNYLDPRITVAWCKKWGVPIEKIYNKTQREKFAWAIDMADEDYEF
Nature of the assay: ELISA, LogAUC grade.

For a further assay, the target named is T6, CH505w030.20D8gp120/293F.
T6 construct: also called CH505w30.20 gp120
Nature of the assay: ELISA.

The target of the next assay is T7, CH505.w30.12D8gp120.
T7 construct: also called CH505w30.12 gp120
Nature of the assay: ELISA.

For the next assay, the target named is T8, Centromere B (UniProt P07199 1-599).
T8 construct: also called Cent B
T8 sequence: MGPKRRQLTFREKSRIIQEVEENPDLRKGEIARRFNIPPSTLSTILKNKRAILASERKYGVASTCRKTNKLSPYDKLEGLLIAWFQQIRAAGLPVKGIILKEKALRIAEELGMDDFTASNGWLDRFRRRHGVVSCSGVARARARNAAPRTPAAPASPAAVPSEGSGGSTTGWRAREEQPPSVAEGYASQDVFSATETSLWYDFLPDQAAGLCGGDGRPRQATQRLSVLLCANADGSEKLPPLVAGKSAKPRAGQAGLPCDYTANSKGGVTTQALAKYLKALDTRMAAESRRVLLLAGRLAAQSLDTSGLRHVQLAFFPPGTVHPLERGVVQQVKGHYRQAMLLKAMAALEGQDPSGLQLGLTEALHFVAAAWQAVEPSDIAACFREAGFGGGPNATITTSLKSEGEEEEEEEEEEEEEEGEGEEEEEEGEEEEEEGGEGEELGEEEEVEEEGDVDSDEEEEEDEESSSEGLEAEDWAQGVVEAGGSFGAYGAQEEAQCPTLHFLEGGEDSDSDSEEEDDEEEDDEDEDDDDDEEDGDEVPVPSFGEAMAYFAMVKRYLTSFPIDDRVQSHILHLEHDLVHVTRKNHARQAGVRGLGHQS
Nature of the assay: ELISA, LogAUC grade.

In the next assay the target is T9, Jo-1 (UniProt P12081 1-509).
T9 sequence: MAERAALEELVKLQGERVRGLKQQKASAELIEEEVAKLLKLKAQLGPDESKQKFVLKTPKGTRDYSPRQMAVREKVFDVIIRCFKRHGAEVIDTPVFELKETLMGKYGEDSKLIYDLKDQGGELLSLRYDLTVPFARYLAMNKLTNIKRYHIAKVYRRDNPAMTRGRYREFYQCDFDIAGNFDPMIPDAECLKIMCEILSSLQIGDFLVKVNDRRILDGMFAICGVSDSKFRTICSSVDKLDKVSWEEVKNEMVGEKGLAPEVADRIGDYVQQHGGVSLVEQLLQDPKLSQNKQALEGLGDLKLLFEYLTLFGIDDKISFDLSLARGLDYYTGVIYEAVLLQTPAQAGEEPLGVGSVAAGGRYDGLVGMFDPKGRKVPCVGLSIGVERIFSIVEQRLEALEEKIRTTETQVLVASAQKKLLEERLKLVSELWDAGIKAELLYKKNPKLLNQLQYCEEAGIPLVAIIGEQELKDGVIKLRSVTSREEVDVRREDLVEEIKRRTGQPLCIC
Nature of the assay: ELISA, LogAUC grade.

For a further assay, the target named is T10, SSB (UniProt P05455 1-408).
T10 sequence: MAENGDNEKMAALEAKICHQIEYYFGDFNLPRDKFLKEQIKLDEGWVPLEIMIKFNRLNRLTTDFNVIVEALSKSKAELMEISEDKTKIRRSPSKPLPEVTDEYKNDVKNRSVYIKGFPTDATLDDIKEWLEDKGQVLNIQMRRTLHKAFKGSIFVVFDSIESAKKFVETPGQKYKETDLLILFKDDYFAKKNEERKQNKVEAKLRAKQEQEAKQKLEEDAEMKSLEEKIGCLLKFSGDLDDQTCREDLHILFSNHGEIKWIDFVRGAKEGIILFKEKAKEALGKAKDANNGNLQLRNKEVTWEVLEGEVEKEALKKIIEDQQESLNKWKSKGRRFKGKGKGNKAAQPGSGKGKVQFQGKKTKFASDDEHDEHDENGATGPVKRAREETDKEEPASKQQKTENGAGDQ
Nature of the assay: ELISA, LogAUC grade.

Data on four molecules can be found in US10450368 (DUKE UNIVERSITY, dated 2019).

B1: CH555 (antibody, V domains shown)
VH: QVQLVQSGATVKKPRASVTLSCRTSGYNFIDYFIHWVRRAPGQRLEVMGYIDPSRGRPDYAPNFRDRVSLYRDTSMSIVYLDLRDLTPDDTAIYYCVRSEGTEGTVLHYDHWGPGTRVTVSP
VL: EIVLTQSPDTLSASPGERVTLSCRASQSVGTKVAWYRHVRGQPPRLLIYGASTRAAGIPARFSGGGSGTNFTLIINNFQSEDFAEYLCQQYKSWWTFGQGTKVDNK
notes: also called CH235.10
Turning to B1, the LogAUC was found to be 5.54 in the assay with CH505w136.B18D8gp120; 0.09 with CH505.M7D8gp120/293F; 0.07 with CH505.M9D8gp120/293F; 0 with CH505.M19D8gp120; 5.67 with CH505.TF mutant gp120 M6; 0 in assay [1]. The LogAUC with CH505.M5D8gp120293F came to 2.62; with CH505.TF mutant gp120 M8, 0; with CH505.M10D8gp120, 1.06; in the assay with CH505.M21D8gp120/293F, 0; with CH505.M11D8gp120/293F, 5.05; in the assay with CH505w020.14D8gp120 it was 5.63. The LogAUC is 7.23 with CH0505_CON D7gp120/293i, 5.62 with CH505w030.20D8gp120/293F and 0 in the assay with CH505.w30.12D8gp120. Moreover, the binding result in the assay with Scl-70 was “no binding”.

B2: CH235.13 (antibody, V domains shown)
VH: QVQLVQSGGGVKRPGSTTTISCVASGYSFNDYYIHWVRQAPGQGLEVLGFIDPSNGRTNYAGAFGDRFSMYRDKSMETLYMDLRNLRSDDTAMYYCVRNVGTAGSLLHYDHWGTGSKIIVSS
VL: EIVLTQSPATLSASPGERVTLTCRASRGVRNNVAWYQHNVGQSPRLLIYDASTRAPGIPARFSGSASGTEFTLAISSIQSEDFTLYYCHQYNNWWTFGQGTRVDIN
B2: the LogAUC with CH505w136.B18D8gp120 is 1.76; with CH505.M7D8gp120/293F, 0; in the assay with CH505.M9D8gp120/293F, 0; in the assay with CH505.M19D8gp120, 2.89; with CH505.TF mutant gp120 M6, 6.07; in assay [1], 0. For the same molecule, the LogAUC with CH505.M5D8gp120293F was determined as 6.53; with CH505.TF mutant gp120 M8 it was 0; with CH505.M10D8gp120, 6.38; with CH505.M21D8gp120/293F, 0; with CH505.M11D8gp120/293F, 5.35; with CH505w020.14D8gp120, 6.14. The values for the LogAUC with CH0505_CON D7gp120/293i, with CH505w030.20D8gp120/293F and with CH505.w30.12D8gp120 were 6.23, 5.41 and 1.05, respectively. Further, the binding result with Scl-70 is “no binding”.

B3: CH235 UCA (antibody, V domains shown)
VH: QVQLVQSGAEVKKPGASVKVSCKASGYTFTSYYMHWVRQAPGQGLEWMGIINPSGGSTSYAQKFQGRVTMTRDTSTSTVYMELSSLRSEDTAVYYCARDVGTEGSLLHFDYWGQGTLVTVSS
VL: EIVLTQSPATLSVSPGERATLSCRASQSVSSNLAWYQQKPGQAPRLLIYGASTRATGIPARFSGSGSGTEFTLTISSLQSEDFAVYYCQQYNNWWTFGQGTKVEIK
notes: also called unmutated common ancestor of the CH235 lineage
For the molecule B3, the LogAUC (with CH505w136.B18D8gp120; in the assay with CH505.M7D8gp120/293F; in the assay with CH505.M9D8gp120/293F; with CH505.M19D8gp120; with CH505.TF mutant gp120 M6; in assay [1]) was 0 each time. Further, the LogAUC in the assay with CH505.M5D8gp120293F is 0.24; with CH505.TF mutant gp120 M8, 0; with CH505.M10D8gp120, 0; with CH505.M21D8gp120/293F it was 0; with CH505.M11D8gp120/293F, 0; with CH505w020.14D8gp120 it was 0. The LogAUC with CH0505_CON D7gp120/293i, with CH505w030.20D8gp120/293F and with CH505.w30.12D8gp120 was 0 each time. In addition, the binding result in the assay with Centromere B, with Jo-1, in the assay with Scl-70 and in the assay with SSB was “no binding” each time.

B4: CH556 (antibody, V domains shown)
VH: QVQLVQSGGTVKSPGTSVTLSCKTSGYNFIDYYIHWVRRAPGQRPELMGYIDPSHGRPDYEGKFRDRISLYRDTSTSVVYMDVRGLRLDDTALYYCVRGGGVEVSSNHYDHWGPGTMVFVSP
VL: ETTLTQSPDTLSASPGERVTLSCRAAQSVGSQVAWFRHIRGQPPRLLISGASTRAAGVPARFSGSGSGTDFTLTISGMQSEDFAEYFCQQYHMWWTFGQGTRVDKN
notes: also called CH235.11
For the molecule B4, the LogAUC with CH505w136.B18D8gp120 was found to be 0.11; with CH505.M7D8gp120/293F it was 0; with CH505.M9D8gp120/293F, 0.23; with CH505.M19D8gp120 it was 0.09; with CH505.TF mutant gp120 M6 it was 0.09; in assay [1] it was 0.28. Moreover, the LogAUC was found to be 1.26 in the assay with CH505.M5D8gp120293F; 0.29 in the assay with CH505.TF mutant gp120 M8; 1.06 in the assay with CH505.M10D8gp120; 0.1 with CH505.M21D8gp120/293F; 0.11 in the assay with CH505.M11D8gp120/293F; 0.11 with CH505w020.14D8gp120. The LogAUC was determined as 0.26 with CH0505_CON D7gp120/293i, 0.69 with CH505w030.20D8gp120/293F and 0 with CH505.w30.12D8gp120. Also, the binding result with Scl-70 is “no binding”.
